The values below come from US20210293791A1, “BACTERIAL VAGINOSIS DIAGNOSTIC” (MOLOGIC LTD, priority 2018, published 2021).

Non-standard residues stand in square brackets, D forms with d. Primed or numbered codes have the meaning given here. Gal = galactose on Ser (no sialyl group); Biotin′ = not defined here; Ac6c = NC1(C(=O)O)CCCCC1; PEG = not defined here

In one data set the test system is antisera CF1064. The conditions noted are these: ELISA and lateral flow, FIG. 19. From the text: To refine the peptide design and remove peripheral interactions of antibodies not binding the galactose moiety in the peptide, the original sequence MOL136 was truncated to a shorter sequence MOL600: […]
(In general: ELISA stands for enzyme-linked immunosorbent assay.)

The next data set deals with MOL136 and MOL136c. The experiment in a line: Lateral flow assay with gold-labelled antisera on streptavidin capture zone. In kind it is binding. The conditions noted are these: gold-labelled CF1064; peptide 1.3 ng/ml (38 μg per strip).
For the next data set, the system named is sialidase. The conditions noted are these: 25 U/ml sialidase in PBST for 5 minutes.
The subject of data set [1] is T1, MOL600c: NH2-Cyc-DAla-Ser[Gal-Sial]-DAla-Arg-PEG-Biotin.
T1 sequence: XASAR

For data set [2], the system named is T2, MOL136c: biotin-PEG-Asp-Glu-DSer-Nva-Cyc-DAla-Ser[Gal-Sial]-DAla-Arg-Phe-DSer-Val-OH.
T2 sequence: DESXXASARFSV

Data set [3] deals with T3, MOL600: NH2-Cyc-DAla-Ser[Gal]-DAla-Arg-PEG-Biotin (reading uncertain; also: printed as NH2-Cyc-DAla-Ser[Gal]-DAla-Arg-PEG-Biotin).
T3 construct: MOL600 is its de-sialylated form; Immobilised on a streptavidin biosensor through biotin
T3 peptide: H-[Ac6c][dA]S(Gal)[dA]R-{PEG-Biotin′}
The experiment in a line: bio-layer interferometry, peptide immobilised on streptavidin biosensor, antibody at 1, 2, 4, 8 or 16 nM. How it is done: (§1) MOL615 was biotinylated to yield MOL600 (sequence provided in Example 7) and antibody binding affinity and kinetics was measured using bio-inferometry. […] Binding of the antibody was detected by a shift in the reflected light interference.
Background: Biolayer interferometry detects binding as a change in optical thickness at a sensor tip.

The next data set deals with MOL600. The experiment in a line: Antibody binding affinity and kinetics by bio-inferometry, peptide immobilised on biosensor by streptavidin/biotin. How it is done:
as §1

Setting [4] is: antibody at 1, 2, 4, 8 or 16 nM, MOL600 immobilised.

Procedure for MOL136 and MOL136c: CF1064 was conjugated to gold particles in optimised conditions (15 μg/ml loading in 10 mM sodium borate buffer; pH 8.0) and assayed against MOL136 and MOL136c at a final concentration of 1.3 ng/ml (38 μg per strip). Thus, a capture zone was first formed on each lateral flow test strip using 1.5 mg/ml streptavidin. Then, 3 μl of each peptide (12.5 ng/ml peptide in PBST) was mixed with 10 μl of gold-labelled CF1064 and 15 μl of running buffer (0.5 M Tris at pH 7.5+3% BSA+0.5% Triton X-100) before each sample was run along a separate lateral flow test strip. A negative control in which no peptide was added was also run as a negative control. 15 μl of running buffer wash was then run along each lateral flow test strip.
Procedure for sialidase: Thus, a capture zone was first formed on each lateral flow test strip using 1.5 mg/ml streptavidin. Then, 3 μl of each peptide (12.5 ng/ml peptide in PBST) was mixed with 10 μl of gold-labelled CF1064 and 15 μl of running buffer (0.5 M Tris at pH 7.5+3% BSA+0.5% Triton X-100) before each sample was run along a separate lateral flow test strip. A negative control in which no peptide was added was also run as a negative control. 15 μl of running buffer wash was then run along each lateral flow test strip.
The procedure described in Example 4B was repeated in the presence of 25 U/ml sialidase. A sample in which sialidase was absent was used as a negative control. A further negative control was run in which no peptide and no sialidase was included in the sample. As a positive control, MOL136 was used in place of MOL136c in the presence of 25 U/ml sialidase.

As to “NH2—Cyc-DAla-Ser[Gal]-DAla-Arg-PEG-Biotin [MOL600]”, the “performance compared with MOL136/MOL136c” value with antisera CF1064 was “significant improvement in performance”.

Regarding “biotin-PEG-Asp-Glu-DSer-Nva-Cyc-DAla-Ser[Gal-Sial]-DAla-Arg-Phe-DSer-Val-OH [MOL136c]”, the “signal in the capture zone (visible line on the test strip)” value in the data set with MOL136 and MOL136c is on record as “little/no signal”. In the data set on sialidase, the “lateral flow signal after sialidase incubation” value is listed as “clear positive signal”.

sialidase: the “lateral flow test line signal” value in data set [1] is reported as “signal has been recovered by spiking in sialidase”. In addition, in data set [2], the “lateral flow test line signal with gold-labelled CF1064” value is recorded as “A clear positive signal was observed in respect of MOL136c incubated in the presence of 25 U/ml sialidase in PBST for 5 minutes”.

As to “biotin-PEG-Asp-Glu-DSer-Nva-Cyc-DAla-Ser[Gal]-DAla-Arg-Phe-DSer-Val-OH [MOL136]”, the “signal in the capture zone (visible line on the test strip)” value in the data set with MOL136 and MOL136c was “clearly detected”.

For “NH2—Cyc-DAla-Ser[Gal-Sial]-DAla-Arg-PEG-Biotin [MOL600c]”, the “performance compared with MOL136/MOL136c” value in the data set with antisera CF1064 is “significant improvement in performance”.

B1: monoclonal antibody 125.1 (antibody, V domains shown)
VH: QSVEESGGRLVTPGTPLTLTCTVSGFSLSSYSMDWVRQAPGKGLEWVGGITTTLHTFYATWAKGRFTISKTSSTTVDLKMTSLTTDDAATYFCARGGSSVIWGPGTLVTVSS
VL: ALVMTQTPSPVSAAVGGTVTISCQSSQSVYGNNHLNWHQQKRGQPPKQLIGSASRLASGVPSRFKGSGSGTQFTLTISGVQCDDAATYYCQGSYYNGAWYVAFGGGTELEIKR
modifications: Pyro-Glu(Q) at N-terminal of heavy chain; N-linked glycosylation at constant region N@285; additional O-linked glycosylation site between positions 213 and 216 (partly occupied); C-terminal lysine eliminated
notes: Rabbit monoclonal from immunisation with KLH-MOL616; Gamma heavy chain and Kappa light chain
In data set [3], B1 registered a Kd of 7.9 nM, a koff of 0.000427 s⁻¹ and an on-rate constant (kon) of 54100 M⁻¹ s⁻¹.

B2: antibody 125.1: rabbit monoclonal antibody, heavy chain SEQ ID NO: 7, light chain SEQ ID NO: 8, specific for Cyc-DAla-Ser[Gal]-DAla-Arg (antibody, listed as Oryctolagus cuniculus)
heavy: QSVEESGGRLVTPGTPLTLTCTVSGFSLSSYSMDWVRQAPGKGLEWVGGITTTLHTFYATWAKGRFTISKTSSTTVDLKMTSLTTDDAATYFCARGGSSVIWGPGTLVTVSSGQPKAPSVFPLAPCCGDTPSSTVTLGCLVKGYLPEPVTVTWNSGTLTNGVRTFPSVRQSSGLYSLSSVVSVTSSSQPVTCNVAHPATNTKVDKTVAPSTCSKPTCPPPELLGGPSVFIFPPKPKDTLMISRTPEVTCVVVDVSEDDPEVQFTWYINNEQVRTARPPLREQQFNSTIRVVSTLPIAHEDWLRGKEFKCKVHNKALPAPIEKTISKARGQPLEPKVYTMGPPREELSSRSVSLTCMINGFYPSDISVEWEKNGKAEDNYKTTPAVLDSDGSYFLYSKLSVPTSEWQRGDVFTCSVMHEALHNHYTQKSISRSPG
light: ALVMTQTPSPVSAAVGGTVTISCQSSQSVYGNNHLNWHQQKRGQPPKQLIGSASRLASGVPSRFKGSGSGTQFTLTISGVQCDDAATYYCQGSYYNGAWYVAFGGGTELEIKRDPVAPSVLLFPPSKEELTTGTATIVCVANKFYPSDITVTWKVDGTTQQSGIENSKTPQSPEDNTYSLSSTLSLTSAQYNSHSVYTCEVVQGSASPIVQSFNRGDC
As to B2, the “binding specificity for MOL600 compared to the sialylated form MOL600c” value in the data set on MOL600 (FIG. 27) was “clearly specific for MOL600”. In the data set on MOL600 (setting [4]), this molecule had a Koff of 0.000427 s⁻¹ and a Kon of 54080 M⁻¹ s⁻¹.

As usually defined, the Kd is the free concentration of one partner at which half of the binding sites on the other are occupied at equilibrium, for simple one-to-one binding. By koff is commonly meant the rate constant with which the complex falls apart. Read a high koff as fast dissociation. The term kon denotes a measure of how fast the partners come together. A low value points to slower complex formation.
